The values below come from patent publication US20030229005.

“And” between values parts separate entries of the source, which are not always exact repeats. Equal entries are not always repeated.

The target of data set [1] is type IV collagen (UniProt P08572).
For data set [2], the system named is Dnp-GPVNFRVC(Me)-NH2.
For data set [3], the system named is biglycan.
Data set [4] relates to Dnp-GPLPFRVC(Me)-NH2.
For data set [5], the system named is Dnp-GPAPFRVC(Me)-NH2.
Data set [6] relates to Dnp-GPVNLHGRC(Me)-NH2.
The test system of data set [7] is Dnp-GPINLHG-NH2.
The subject of data set [8] is Dnp-GPLQMRG-NH2.
Data set [9] concerns Dnp-GPLSIQD-NH2.
Data set [10] relates to Dnp-GPLPLHGC(Me)-NH2.
Data set [11] relates to Dnp-GPAPLHVC(Me)-NH2.
The subject of data set [12] is Dnp-GPAPFRGC(Me)-NH2.
In data set [13] the test system is Dnp-DEGPMGLKC(Me)YLG-NH2.
Data set [14] concerns Dnp-GPMSYNG-NH2.
The test system of data set [15] is Dnp-GPSPLHGC(Me)-NH2.
Data set [16] deals with Dnp-GPSGIHV-NH2.
Data set [17] concerns Dnp-GPHPFRG-NH2.
Data set [18] has as its system Dnp-GPLSISG-NH2.
In data set [19] the test system is Dnp-GPLGLHVC(Me)-NH2.
Data set [20] concerns Dabcyl-GPLGMRGC(Fluorescein)-NH2.
For data set [21], the system named is Dnp-PSGIHL-NH2.
Data set [22] has as its system Dnp-PLGMRG-NH2.
Data set [23] has as its system Dnp-GPVNLHG-NH2.
The subject of data set [24] is Dnp-GPSELKG-NH2.
In data set [25] the test system is Dnp-GPSPFHVC(Me)-NH2.
Data set [26] deals with Dnp-GPVNLHGC(Me)-NH2.
The test system of data set [27] is Dnp-GPKGMRG-NH2.
The test system of data set [28] is Dnp-VTPYNMRG-NH2.
Data set [29] concerns Dnp-GPKGITS-NH2.
In data set [30] the test system is Dnp-GPLGFRVC(Me)-NH2.
Data set [31] has as its system Dnp-PINLHG-NH2.
In data set [32] the test system is Dnp-GPLSFQG-NH2.
Data set [33] relates to Dnp-VC(Me)PKGITSC(Me)VFR-NH2.
The subject of data set [34] is Dnp-GPSGIHL-NH2.
The subject of data set [35] is Dnp-GPLPFRGC(Me)-NH2.
The test system of data set [36] is Dnp-GPLGFRGC(Me)-NH2.
The test system of data set [37] is Dnp-PHPFRG-NH2.
Data set [38] concerns Dnp-GPAPLHGC(Me)-NH2.
The subject of data set [39] is Dabcyl-GPHPFRGC(Flu)-NH2.
For data set [40], the system named is Dnp-GPLPFHVC(Me)-NH2.
Data set [41] deals with Dnp-GPFGLKG-NH2.
For data set [42], the system named is Dnp-GPHPMRG-NH2.
Data set [43] has as its system Dab-SYPSGIHLC(Flu)LQR-NH2.
In data set [44] the test system is Dnp-GPLGMRG-NH2.
The subject of data set [45] is Dnp-GPLQFRG-NH2.
Data set [46] deals with Dnp-GPSPFRGC(Me)-NH2.
The test system of data set [47] is Dnp-GPLGLHGC(Me)-NH2.
Data set [48] has as its system Dnp-GPYGMRA-NH2.
The test system of data set [49] is Dnp-GPRPFRG-NH2.
In data set [50] the test system is Dabcyl-GPVNLHGC(Flu)-NH2.

gelatinase B, sequence (chain, as listed by the source): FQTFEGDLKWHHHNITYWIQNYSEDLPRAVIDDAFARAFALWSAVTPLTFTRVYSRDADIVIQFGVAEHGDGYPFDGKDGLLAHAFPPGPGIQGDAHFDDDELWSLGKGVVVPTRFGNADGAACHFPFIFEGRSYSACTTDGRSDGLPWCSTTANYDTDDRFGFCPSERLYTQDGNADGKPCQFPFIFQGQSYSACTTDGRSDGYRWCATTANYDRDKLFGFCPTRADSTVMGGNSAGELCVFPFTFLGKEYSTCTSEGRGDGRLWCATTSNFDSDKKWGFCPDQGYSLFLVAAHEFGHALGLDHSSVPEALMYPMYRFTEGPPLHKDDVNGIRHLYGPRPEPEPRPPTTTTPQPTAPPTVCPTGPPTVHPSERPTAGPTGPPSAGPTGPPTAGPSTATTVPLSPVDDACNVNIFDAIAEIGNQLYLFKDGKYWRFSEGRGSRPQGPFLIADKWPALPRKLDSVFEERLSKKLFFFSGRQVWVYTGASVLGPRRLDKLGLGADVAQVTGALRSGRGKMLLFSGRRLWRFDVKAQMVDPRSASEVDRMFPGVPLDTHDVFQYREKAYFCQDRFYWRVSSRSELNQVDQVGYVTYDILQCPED
type IV collagen, sequence (P08572 26-1712, chain 1 of 2): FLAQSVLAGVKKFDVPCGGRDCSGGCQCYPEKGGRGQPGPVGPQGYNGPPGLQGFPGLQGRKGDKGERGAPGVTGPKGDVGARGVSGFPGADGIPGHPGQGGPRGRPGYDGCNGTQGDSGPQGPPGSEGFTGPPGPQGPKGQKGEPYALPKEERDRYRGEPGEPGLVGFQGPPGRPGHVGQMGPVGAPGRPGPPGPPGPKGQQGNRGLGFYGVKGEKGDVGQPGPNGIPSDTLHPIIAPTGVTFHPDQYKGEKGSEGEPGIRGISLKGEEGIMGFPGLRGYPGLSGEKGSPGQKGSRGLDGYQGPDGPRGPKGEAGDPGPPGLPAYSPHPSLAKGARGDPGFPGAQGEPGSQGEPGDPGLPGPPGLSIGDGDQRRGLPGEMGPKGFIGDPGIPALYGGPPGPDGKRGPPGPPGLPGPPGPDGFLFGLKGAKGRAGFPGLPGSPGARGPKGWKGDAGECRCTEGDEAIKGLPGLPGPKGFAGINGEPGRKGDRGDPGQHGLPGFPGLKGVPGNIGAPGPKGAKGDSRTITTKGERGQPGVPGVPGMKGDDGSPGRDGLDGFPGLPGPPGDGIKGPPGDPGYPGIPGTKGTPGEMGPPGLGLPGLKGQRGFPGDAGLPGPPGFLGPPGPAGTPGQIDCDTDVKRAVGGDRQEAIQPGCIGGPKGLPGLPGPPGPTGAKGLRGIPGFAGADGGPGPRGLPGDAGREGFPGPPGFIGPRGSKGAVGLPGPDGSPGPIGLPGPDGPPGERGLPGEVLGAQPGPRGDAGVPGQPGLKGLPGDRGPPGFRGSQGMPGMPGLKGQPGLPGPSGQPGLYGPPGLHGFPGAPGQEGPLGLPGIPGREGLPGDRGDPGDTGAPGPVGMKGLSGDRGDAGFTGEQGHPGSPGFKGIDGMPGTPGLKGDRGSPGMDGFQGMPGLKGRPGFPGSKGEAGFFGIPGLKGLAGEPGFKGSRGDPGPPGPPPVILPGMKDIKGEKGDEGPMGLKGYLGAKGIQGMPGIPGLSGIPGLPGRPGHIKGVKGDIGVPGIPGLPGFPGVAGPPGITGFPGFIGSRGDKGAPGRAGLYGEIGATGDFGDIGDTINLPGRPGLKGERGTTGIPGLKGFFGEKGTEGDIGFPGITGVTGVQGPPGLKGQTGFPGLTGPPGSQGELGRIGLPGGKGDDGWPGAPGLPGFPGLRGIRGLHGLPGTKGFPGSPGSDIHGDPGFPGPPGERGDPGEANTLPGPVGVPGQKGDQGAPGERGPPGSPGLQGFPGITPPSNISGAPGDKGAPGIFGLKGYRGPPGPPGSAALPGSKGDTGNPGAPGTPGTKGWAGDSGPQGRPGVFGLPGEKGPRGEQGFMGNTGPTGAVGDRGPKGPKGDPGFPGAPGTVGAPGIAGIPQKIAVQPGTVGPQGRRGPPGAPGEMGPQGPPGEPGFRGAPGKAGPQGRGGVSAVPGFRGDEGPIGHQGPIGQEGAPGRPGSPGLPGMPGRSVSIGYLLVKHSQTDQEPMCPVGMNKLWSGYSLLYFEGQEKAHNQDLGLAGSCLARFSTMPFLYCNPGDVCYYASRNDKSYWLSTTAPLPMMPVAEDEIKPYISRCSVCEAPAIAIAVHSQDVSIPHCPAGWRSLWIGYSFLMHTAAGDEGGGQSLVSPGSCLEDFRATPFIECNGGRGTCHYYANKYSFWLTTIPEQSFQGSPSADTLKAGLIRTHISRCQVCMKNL
type IV collagen, sequence (chain, as listed by the source, chain 2 of 2): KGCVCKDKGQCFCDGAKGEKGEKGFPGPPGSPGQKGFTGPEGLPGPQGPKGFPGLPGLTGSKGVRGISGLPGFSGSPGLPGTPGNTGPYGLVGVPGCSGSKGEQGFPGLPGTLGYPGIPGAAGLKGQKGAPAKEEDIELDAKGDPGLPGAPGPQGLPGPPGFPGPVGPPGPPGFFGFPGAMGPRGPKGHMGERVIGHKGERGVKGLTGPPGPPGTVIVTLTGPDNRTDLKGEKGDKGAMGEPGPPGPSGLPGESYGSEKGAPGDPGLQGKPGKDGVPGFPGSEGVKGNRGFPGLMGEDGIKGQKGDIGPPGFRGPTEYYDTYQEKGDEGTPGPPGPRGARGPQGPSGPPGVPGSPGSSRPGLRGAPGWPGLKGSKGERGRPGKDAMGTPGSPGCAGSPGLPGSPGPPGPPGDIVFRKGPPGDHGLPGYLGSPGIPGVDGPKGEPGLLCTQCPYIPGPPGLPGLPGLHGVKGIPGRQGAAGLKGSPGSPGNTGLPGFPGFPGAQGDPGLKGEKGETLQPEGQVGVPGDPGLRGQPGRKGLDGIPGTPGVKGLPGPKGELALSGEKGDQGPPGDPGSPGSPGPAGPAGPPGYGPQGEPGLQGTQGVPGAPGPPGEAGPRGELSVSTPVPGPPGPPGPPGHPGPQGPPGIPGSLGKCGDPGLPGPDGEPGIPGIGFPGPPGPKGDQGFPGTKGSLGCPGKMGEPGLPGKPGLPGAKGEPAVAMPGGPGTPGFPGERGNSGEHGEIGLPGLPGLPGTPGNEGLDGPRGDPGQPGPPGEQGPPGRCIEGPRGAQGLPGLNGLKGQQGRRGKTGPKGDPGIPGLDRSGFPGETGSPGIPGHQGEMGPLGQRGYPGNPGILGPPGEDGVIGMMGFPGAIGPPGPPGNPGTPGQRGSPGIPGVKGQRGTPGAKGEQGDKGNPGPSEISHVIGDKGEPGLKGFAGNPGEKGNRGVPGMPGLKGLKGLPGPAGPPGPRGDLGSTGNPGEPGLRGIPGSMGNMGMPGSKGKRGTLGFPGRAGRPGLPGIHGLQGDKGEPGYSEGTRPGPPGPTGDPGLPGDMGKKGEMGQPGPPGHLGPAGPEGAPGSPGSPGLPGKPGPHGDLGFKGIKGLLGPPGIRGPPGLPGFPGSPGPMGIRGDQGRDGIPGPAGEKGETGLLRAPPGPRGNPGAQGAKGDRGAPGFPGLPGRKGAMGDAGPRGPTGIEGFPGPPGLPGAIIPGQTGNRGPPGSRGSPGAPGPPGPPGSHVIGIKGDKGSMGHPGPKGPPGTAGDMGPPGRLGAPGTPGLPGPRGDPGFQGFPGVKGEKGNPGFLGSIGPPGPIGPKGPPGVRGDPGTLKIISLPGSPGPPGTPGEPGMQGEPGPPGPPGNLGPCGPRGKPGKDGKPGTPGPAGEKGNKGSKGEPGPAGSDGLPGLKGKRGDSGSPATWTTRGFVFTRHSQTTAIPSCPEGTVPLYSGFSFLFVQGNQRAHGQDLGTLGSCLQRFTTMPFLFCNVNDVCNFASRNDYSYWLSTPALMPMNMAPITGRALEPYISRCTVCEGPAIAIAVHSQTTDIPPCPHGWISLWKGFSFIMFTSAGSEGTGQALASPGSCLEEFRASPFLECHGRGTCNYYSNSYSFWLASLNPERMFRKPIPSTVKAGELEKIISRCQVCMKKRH

As to gelatinase B, the “cleavage seen on a gel” value in data set [1] was “Both collagenase 1 and gelatinase B processed type IV collagen under the conditions used in our experiments”; in data set [3] it was “stromelysin 1 and gelatinase B being able to degrade this proteoglycan”. In addition, in [2], the Selectivity v. Coll-3, substrate 5 uM was 217 unitless.

As for human Collagenase-3, the Specificity Constant (kcat/Km) in data set [4] was 1.29e+06 1/sM; in data set [5], 1.76e+06 1/sM; in data set [6], 1.04e+06 1/sM; in data set [7], 700000 1/sM; in data set [8], 885000 1/sM; in [9], 868000 1/sM. For the same substance, the Specificity Constant (kcat/Km) is 1.1e+06 1/sM in data set [10]; 677000 1/sM in [11]; 1.14e+06 1/sM in data set [12]; 528000 1/sM in [13]; 887000 1/sM in [14]; 1.76e+06 1/sM in [15]. For the same substance, the Specificity Constant (kcat/Km) in data set [16] was 1.41e+06 1/sM; in [17], 900000 1/sM; in [18], 191000 1/sM; in [19], 4.46e+06 1/sM; in data set [21] it was 91700 1/sM; in data set [22], 980000 1/sM. For the same substance, the Specificity Constant (kcat/Km) in data set [23] is 1.15e+06 1/sM; in data set [24] it was 862000 1/sM; in [25], 338000 1/sM; in data set [26], 813000 1/sM; in data set [27], 2.32e+06 1/sM; in data set [28], 2.69e+06 1/sM. The Specificity Constant (kcat/Km) in [29] was 734000 1/sM; in data set [30], 3.92e+06 1/sM; in data set [31], 377000 1/sM; in data set [32], 454000 1/sM; in [33] it was 1.54e+06 1/sM; in data set [34], 284000 1/sM. Further, the Specificity Constant (kcat/Km) was 973000 1/sM in data set [35]; 2.4e+06 1/sM in data set [36]; 230000 1/sM in [37]; 1.69e+06 1/sM in data set [38]; 598000 1/sM in data set [40]; 1.28e+06 1/sM in [41]. Moreover, the Specificity Constant (kcat/Km) in data set [42] is 2.33e+06 1/sM; in data set [45], 705000 1/sM; in data set [46], 1.3e+06 1/sM; in [47] it was 3.73e+06 1/sM; in [48] it was 5.66e+06 1/sM; in [49], 634000 1/sM. Also, the “cleavage seen on a gel” value in [1] is “type IV collagen digestion gave 3-4 detectable cleavage products (85 kDa, 80 kDa, 35 kDa and 28 kDa”; in data set [3], “Cleavage of biglycan generated peptide fragments of 28, 17, 8, and 6 kDa”. Also, the Specificity Constant in [20] is 4.4e+06 1/sM and 1.62e+06 1/sM; in data set [39], 32700 1/sM; in data set [50], 421000 1/sM. The results for the Specificity Constant, + Gel in [20], in data set [39] and in data set [50] were 1.74e+06 1/sM, 26900 1/sM and 471000 1/sM, respectively. Also, the Specificity Constant (kcat/Km), substrate 5 uM in [2] is 2.57e+06 1/sM. Further, the “sensitivity for collagenase 3 against the consensus substrate FlSb1” value in data set [43] is given as 100-fold less sensitive for collagenase 3 compared to the consensus substrate. For the same substance, the Specificity Constant (kcat/Km), + 1:1 Gelatin in data set [44] is 340000 1/sM. Besides, the Specificity Constant (kcat/Km), + 1:4 Gelatin in data set [44] was 562000 1/sM. Moreover, the Specificity Constant (kcat/Km), + 1:16 Gelatin in data set [44] is 1.93e+06 1/sM. Also, the Specificity Constant (kcat/Km), + 1:64 Gelatin in data set [44] was 2.67e+06 1/sM. For the same substance, the Specificity Constant (kcat/Km), + 1:256 Gelatin in data set [44] was 4.65e+06 1/sM. In addition, the Specificity Constant (kcat/Km), + H2O in data set [44] is 3.16e+06 1/sM. In data set [50], the Specificity Constant, 0.85 to 2.10 Hours, + 1.6 ug/ml TIICol was 1.54e+06 1/sM. For the same substance, in data set [50], the Specificity Constant, 0.85 to 2.10 Hours, + 4.9 ug/ml TIICol is 1.88e+06 1/sM. Also, in data set [50], the Specificity Constant, 0.85 to 2.10 Hours, + 15 ug/ml TIICol is 2.25e+06 1/sM. Moreover, in data set [50], the Specificity Constant, 0.85 to 2.10 Hours, + 44 ug/ml TIICol is 2.55e+06 1/sM. Moreover, in data set [50], the Specificity Constant, 0.85 to 2.10 Hours, + .18 ug/ml TIICol was 1.33e+06 1/sM. For the same substance, the Specificity Constant, 0.85 to 2.10 Hours, + .55 ug/ml TIICol in data set [50] is 1.47e+06 1/sM. In addition, the Specificity Constant, 0.85 to 2.10 Hours, no TIICol in data set [50] is 1.11e+06 1/sM.

The substance stromelysin 1 came in with a Selectivity v. Coll-3, substrate 5 uM in data set [2] of 400 unitless. In [3], the “cleavage seen on a gel” value was “stromelysin 1 and gelatinase B being able to degrade this proteoglycan”.
